Reference: US20160046706A1 (MEDICAL AND BIOLOGICAL LABORATORIES, published 2016)

T1: AREG (amphiregulin; R&D Systems 262-AR-100/CF) (UniProt P15514 101-198)
T1 construct: Bought protein
T1 sequence (looked up): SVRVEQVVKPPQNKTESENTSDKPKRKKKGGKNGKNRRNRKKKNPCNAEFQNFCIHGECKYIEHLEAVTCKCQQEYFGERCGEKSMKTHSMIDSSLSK

T2: human NRG1-α protein (full length, HA tag at the N-terminus, on NRG1-a/st293T cells) (human, UniProt Q02297 20-640)
T2 construct: also called NRG1 isoform 2; HA-NRG1-a/st293T; not shown: HA tag added to the N-terminus
T2 sequence: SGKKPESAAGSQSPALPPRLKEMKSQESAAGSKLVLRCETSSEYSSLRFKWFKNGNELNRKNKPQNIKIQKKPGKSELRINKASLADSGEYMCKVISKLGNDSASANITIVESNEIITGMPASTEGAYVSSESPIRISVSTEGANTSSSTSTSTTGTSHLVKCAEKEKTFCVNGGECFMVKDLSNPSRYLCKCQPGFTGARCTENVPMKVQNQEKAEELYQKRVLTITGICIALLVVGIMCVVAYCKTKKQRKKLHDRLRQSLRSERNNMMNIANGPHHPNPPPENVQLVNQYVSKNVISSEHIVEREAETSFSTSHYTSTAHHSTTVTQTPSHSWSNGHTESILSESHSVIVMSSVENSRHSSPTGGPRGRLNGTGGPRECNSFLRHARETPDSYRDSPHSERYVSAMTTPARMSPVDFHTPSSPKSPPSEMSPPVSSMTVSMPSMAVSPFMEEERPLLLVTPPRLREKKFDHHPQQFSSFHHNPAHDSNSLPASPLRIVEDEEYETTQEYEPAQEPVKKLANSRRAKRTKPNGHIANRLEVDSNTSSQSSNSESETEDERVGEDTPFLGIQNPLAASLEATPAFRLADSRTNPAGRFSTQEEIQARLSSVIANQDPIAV

T3: human NRG1-β1 protein (full length, HA tag at the N-terminus, on NRG1-b/st293T cells) (human, UniProt Q02297 20-640)
T3 construct: also called NRG1 isoform 1; HA-NRG1-b/st293T; not shown: HA tag added to the N-terminus
T3 sequence: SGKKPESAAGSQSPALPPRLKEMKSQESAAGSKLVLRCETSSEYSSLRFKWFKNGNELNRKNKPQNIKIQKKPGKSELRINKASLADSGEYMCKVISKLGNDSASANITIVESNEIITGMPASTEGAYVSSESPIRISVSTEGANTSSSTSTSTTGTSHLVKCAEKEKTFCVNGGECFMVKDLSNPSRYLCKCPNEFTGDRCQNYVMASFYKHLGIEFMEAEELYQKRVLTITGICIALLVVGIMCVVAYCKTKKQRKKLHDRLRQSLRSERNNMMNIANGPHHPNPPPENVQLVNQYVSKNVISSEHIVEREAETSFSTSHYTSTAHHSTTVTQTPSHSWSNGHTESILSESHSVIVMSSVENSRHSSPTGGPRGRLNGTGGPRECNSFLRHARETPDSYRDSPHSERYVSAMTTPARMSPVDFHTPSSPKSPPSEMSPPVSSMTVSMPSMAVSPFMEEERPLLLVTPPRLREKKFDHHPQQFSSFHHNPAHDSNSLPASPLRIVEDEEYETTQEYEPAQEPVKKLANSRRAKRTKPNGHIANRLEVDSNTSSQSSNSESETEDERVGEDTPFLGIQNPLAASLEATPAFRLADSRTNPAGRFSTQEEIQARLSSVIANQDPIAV

T4: agPa (synthetic peptide containing the cleavage region of NRG1-a, bound to KLH); positions 221 to 244 of the … (human, bound to KLH)
T4 peptide: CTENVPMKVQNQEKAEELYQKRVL

B1: 10b2M3 (antibody, mouse IgG1, V domains shown)
VH: QVQLQQSGPELVKPGASVKISCKASGYAFSSSWMNWVKQRPGKGLEWIGRIYPGDGDIYYNGKFKGKATLTADKSSSTAYMQLNSLTSEDSAVYFCARTFNYPFFAYWGQGTLVTVSS
VL: DILMTQSPSSLTVSTGEKVTMSCKSSQSLLASANQNNYLAWHQQKPGRSPKMLIIWASTRVSGVPDRFIGSGSGTDFTLTINSVQAEDLAVYYCQQSYSAPTTFGAGTKL
notes: Mouse monoclonal antibody; Variable genes were amplified with mouse IgG1 CH1 and kappa constant region primers; The printed VL ends at ...GTKL; also called 10b2M3 antibody
B2: 8a4 (antibody, mouse IgG1, V domains shown)
VH: EVQLQQSGADLVRPGASVKLSCTASGFNIKDDYIHWVKQRPEQGLEWIGWIDPENGDTEYASQFQGKATITADTSSNTAYLQLRSLTSEDTAVYYCTTSDHRAWFAFWGLGTLVTVSS
VL: DVLMTQTPLSLPVSLGDQASISCRSSQTIVHRNGNTYLEWYLQKPGQSPKLLIYRVSNRFSGVPDRFSGSGSGTDFTLKISRVEAEDLGVYYCFQGSHVPLTFGAGTKL
notes: Mouse monoclonal antibody; Variable genes were amplified with mouse IgG1 CH1 and kappa constant region primers; The printed VL ends at ...GTKL; also called 8a4 antibody
B3: 10bM3 (antibody, mouse IgG1, V domains shown)
VH: EVQLVESGGGLVKPGGSRKLSCAASGFTFSDYGIHWVRQAPEKGLEWLAYISSGSSTIYYADTVKGRFTISRDNAKNTLFLQMTSLRSEDTAMYYCARGSNYVGYYAMDYWGQGTSVTVSS
VL: DIVMTQSPSSLAVTAGEKVTMRCKSSQSLLWSVNQKNYLSWYQQKEGQSPKLLIYGASIRESWVPDRFTGSGSGTDFTLTISNVHAEDLAVYYCQHNHGRFLPLTFGGGTKL
notes: Mouse monoclonal antibody; Variable genes were amplified with mouse IgG1 CH1 and kappa constant region primers; The printed VL ends at ...GTKL

Columns and labels:
[1] = target: T5, EGF (R&D Systems 236-EG-200) (UniProt P01133 971-1023); test: ELISA, factor on the plate at 0.5 µg/mL (FIG. 8)
T5 construct: Bought protein
Method: (§1) After the solution was removed, 1% BSA (manufactured by Nacalai Tesque, Inc.: 01863-35)—5% Sucrose (manufactured by WAKO PURE CHEMICAL […], LTD.)—PBS was added in an amount of 150 μL/well, and left to stand at room temperature for 2 hours to block the remaining active groups. After the resultant was left to stand, the solution was removed, and the hybridoma culture supernatant was dispensed as a primary antibody in an amount of 50 μL/well and left to stand for 1 hour. After the plate was washed with 0.05% Tween 20-PBS, an HRP-labeled anti-mouse IgG antibody (manufactured by MBL Co., Ltd.: 330) having been diluted 10000 times was added as a secondary antibody in an amount of 50 μL/well and left to stand at room temperature for 1 hour. After the plate was washed with 0.05% Tween 20-PBS, a color developing solution (5 mM sodium citrate, 0.8 mM 3.3′.5.5′-tetramethylbenzidine-2HCl, 10% N,N-dimethylformamide, 0.625% polyethylene glycol 4000, 5 mM citric acid monohydrate, 5 mM H2O2) was added thereto in an amount of 50 μL/well and left to stand at room temperature for 20 minutes to develop a color. The color development was terminated by adding 1 M phosphoric acid in an amount of 50 μL/well. Then, the absorbance at 450 nm was measured using a plate reader (manufactured by Thermo Fisher Scientific Inc.).
(§2) As described above, any homology with the NRG1 protein is low in the EGF domain. Nonetheless, 8a4, 10bM3, and 10b2M3 capable of recognizing the vicinity of the EGF domain were analyzed for the reactivity with the other factors of the EGF family by the same ELISA as above. To be more specific, each of EGF (manufactured by R&D Systems, Inc.: 236-EG-200), HB-EGF (manufactured by R&D Systems, Inc.: 259-HE-050/CF), TGF-alpha (manufactured by R&D Systems, Inc.: 239-A-100), AREG (manufactured by R&D Systems, Inc.: 262-AR-100/CF), NRG1-α (manufactured by R&D Systems, Inc.: 296-HR-050/CF), or NRG1-b (manufactured by R&D Systems, Inc.: 296-HB-050/CF) was dispensed in a 96-well ELISA plate in an amount of 0.5 μg/mL, that is, 50 μL/well, and immobilized thereto, for detection of the reaction with each antibody in amounts of 10 μg/mL and 1 μg/mL.

[2] = target: T6, HB-EGF (heparin-binding EGF-like growth factor; R&D Systems 259-HE-050/CF) (UniProt Q99075 63-148); test: ELISA, factor on the plate at 0.5 µg/mL (FIG. 8)
T6 construct: Bought protein
Method: as §1, §2

[3] = target: T7, TGF-alpha (transforming growth factor α; R&D Systems 239-A-100) (UniProt P01135 40-89); test: ELISA, factor on the plate at 0.5 µg/mL (FIG. 8)
T7 construct: Bought protein; also called TGFα; TGF-α
Method: as §1, §2

[4] = target: T1, AREG (amphiregulin; R&D Systems …); test: ELISA, factor on the plate at 0.5 µg/mL (FIG. 8)
Method: as §1, §2

[5] = target: T2, human NRG1-α protein (full length, HA …); test: ELISA on partial-length proteins and flow cytometry on NRG1-a/st293T cells (FIGS. 5 to 7)
[6] = target: T3, human NRG1-β1 protein (full length, HA …); test: flow cytometry on NRG1-b/st293T cells
[7] = target: T4, agPa (synthetic peptide containing the …); test: ELISA, partial-length NRG1 protein on the plate (FIG. 4)
Method: Hybridomas producing anti-NRG1 antibodies were selected by the enzyme-linked immunosorbent assay (ELISA). The assay used the recombinant human NRG1 proteins as immunogens, which had been dispensed in a 96-well ELISA plate (manufactured by nunc A/S) in an amount of 0.5 μg/mL, that is, 50 μL/well, and left to stand at room temperature for 2 hours or 4° C. overnight for adsorption. After the solution was removed, 1% BSA (manufactured by Nacalai Tesque, Inc.: 01863-35)—5% Sucrose (manufactured by WAKO PURE CHEMICAL […], LTD.)—PBS was added in an amount of 150 μL/well, and left to stand at room temperature for 2 hours to block the remaining active groups. After the resultant was left to stand, the solution was removed, and the hybridoma culture supernatant was dispensed as a primary antibody in an amount of 50 μL/well and left to stand for 1 hour. […] Then, the absorbance at 450 nm was measured using a plate reader (manufactured by Thermo Fisher Scientific Inc.).
The sequences recognized by 8a2, 8a4, 10bM3, and 10b2M3 were analyzed by evaluating the reactivity with the recombinant NRG1 proteins. To be more specific, the analysis was performed using multiple partial-length NRG1 proteins, and the reactivity of each antibody with these was detected by the same enzyme-linked immunosorbent assay (ELISA) as above. […] The vertical axis represents the absorbance.

T6 sequence (Q99075 63-148 limits assumed): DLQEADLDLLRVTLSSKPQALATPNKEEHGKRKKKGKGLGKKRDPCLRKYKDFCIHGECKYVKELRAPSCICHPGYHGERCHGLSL
T5 sequence (P01133 971-1023 limits assumed): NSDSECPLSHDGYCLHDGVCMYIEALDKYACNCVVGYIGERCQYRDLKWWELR
T7 sequence (P01135 40-89 limits assumed): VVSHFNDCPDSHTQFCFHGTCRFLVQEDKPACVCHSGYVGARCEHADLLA

Binder | binding result [1] | binding result [2] | binding result [3] | binding result [4] | binding result [5] | binding result [6] | binding result [7]
B1 | no binding (tested: 10 µg/mL and 1 µg/mL) | no binding (tested: 10 µg/mL and 1 µg/mL) | no binding (tested: 10 µg/mL and 1 µg/mL) | no binding (tested: 10 µg/mL and 1 µg/mL) | no binding | – | –
B2 | no binding (tested: 10 µg/mL and 1 µg/mL) | no binding (tested: 10 µg/mL and 1 µg/mL) | no binding (tested: 10 µg/mL and 1 µg/mL) | no binding (tested: 10 µg/mL and 1 µg/mL) | – | no binding (tested: 5 µg/mL) | binds
B3 | no binding (tested: 10 µg/mL and 1 µg/mL) | no binding (tested: 10 µg/mL and 1 µg/mL) | no binding (tested: 10 µg/mL and 1 µg/mL) | no binding (tested: 10 µg/mL and 1 µg/mL) | no binding | – | –
